Data taken from patent US20080301824A1.

Columns and labels:
[1] = molecular target: GAL4 binding domain-parkin(1-465) fusion encoded by pGBT9-parkin(1-465) (UniProt P04386); test: cell-based or functional assay
[2] = molecular target: GFP-syt11 (GFP-tagged full-length human synaptotagmin XI) (human) [GFP: P42212]; test: co-IP with anti-HA agarose from HEK293 cells, anti-GFP blot

| β-galactosidase activity in yeast two-hybrid liquid assay, against pGAD10-hsyt11AB with pGBT9 vector control [1] | fold less interaction than parkinC418R [2] | Substance |
| --- | --- | --- |
| 20 fold |  | GAL4 activation domain-hsyt11AB fusion encoded by pGAD10-hsyt11AB (human synaptotagmin 11, domains C2A and C2B) (from UniProt Q9BT88 157-431) |
|  | 2.5 fold less | HA-tagged parkin with missense mutation C289G (from UniProt O60260 1-465) (enzyme) |
